Source: patent US20250262210A1 (TRUSTEES OF COLUMBIA UNIVERSITY IN THE CITY OF NEW YORK, published 2025)

Key:
Assay in all cases: IP/MS, LZTR1 R810W-FLAG, U87
INTS1 = INTS1 (human, UniProt Q8N201 1-2190)
Method in brief: (§1)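 Extracted peptides in 3% acetonitrile/0.1% formic acid ran on a 50 cm C18 column into an Orbitrap Fusion, with MaxQuant identification and spectral counting.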

RNF123 = biological target: T1, RNF123 (human, UniProt Q5XPI4 2-1314, limits assumed)
T1 sequence (looked up): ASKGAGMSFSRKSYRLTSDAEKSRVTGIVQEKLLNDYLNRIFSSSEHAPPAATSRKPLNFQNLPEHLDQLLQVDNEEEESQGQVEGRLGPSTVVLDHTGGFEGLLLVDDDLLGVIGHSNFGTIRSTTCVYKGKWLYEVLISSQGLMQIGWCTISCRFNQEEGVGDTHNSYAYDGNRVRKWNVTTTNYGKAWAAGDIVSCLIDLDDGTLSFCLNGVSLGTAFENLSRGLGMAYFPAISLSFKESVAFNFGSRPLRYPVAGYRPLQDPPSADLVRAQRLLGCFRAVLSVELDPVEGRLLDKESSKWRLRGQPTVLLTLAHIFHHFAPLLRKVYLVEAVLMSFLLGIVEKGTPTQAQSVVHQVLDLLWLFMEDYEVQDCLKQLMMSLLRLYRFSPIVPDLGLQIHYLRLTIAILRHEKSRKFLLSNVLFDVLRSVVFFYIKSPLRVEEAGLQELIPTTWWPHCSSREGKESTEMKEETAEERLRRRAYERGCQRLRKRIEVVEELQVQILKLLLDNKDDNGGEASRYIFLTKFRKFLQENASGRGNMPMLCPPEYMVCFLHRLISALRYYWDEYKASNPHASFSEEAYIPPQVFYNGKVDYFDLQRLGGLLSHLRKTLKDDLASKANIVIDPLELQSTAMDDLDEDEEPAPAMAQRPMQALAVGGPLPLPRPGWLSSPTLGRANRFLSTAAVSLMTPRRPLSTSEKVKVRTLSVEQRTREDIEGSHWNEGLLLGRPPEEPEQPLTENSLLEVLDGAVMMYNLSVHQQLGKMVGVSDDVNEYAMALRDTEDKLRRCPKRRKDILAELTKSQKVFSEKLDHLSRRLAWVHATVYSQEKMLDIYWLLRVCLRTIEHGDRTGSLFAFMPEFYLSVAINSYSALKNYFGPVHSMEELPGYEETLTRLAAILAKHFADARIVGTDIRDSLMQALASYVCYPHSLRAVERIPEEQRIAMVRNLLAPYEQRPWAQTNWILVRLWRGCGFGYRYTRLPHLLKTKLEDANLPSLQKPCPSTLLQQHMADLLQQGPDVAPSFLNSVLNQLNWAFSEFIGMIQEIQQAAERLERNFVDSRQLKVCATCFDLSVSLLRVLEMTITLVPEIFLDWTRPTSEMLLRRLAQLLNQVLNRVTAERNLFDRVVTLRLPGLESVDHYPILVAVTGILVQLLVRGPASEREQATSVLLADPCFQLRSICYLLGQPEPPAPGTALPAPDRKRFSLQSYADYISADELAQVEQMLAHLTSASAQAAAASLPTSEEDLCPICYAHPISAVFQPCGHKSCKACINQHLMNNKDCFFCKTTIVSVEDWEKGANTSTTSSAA
Method in brief: as §1

SMPD4 = biological target: T2, SMPD4 (human, UniProt Q9NXE4 1-866, limits assumed)
T2 sequence (looked up): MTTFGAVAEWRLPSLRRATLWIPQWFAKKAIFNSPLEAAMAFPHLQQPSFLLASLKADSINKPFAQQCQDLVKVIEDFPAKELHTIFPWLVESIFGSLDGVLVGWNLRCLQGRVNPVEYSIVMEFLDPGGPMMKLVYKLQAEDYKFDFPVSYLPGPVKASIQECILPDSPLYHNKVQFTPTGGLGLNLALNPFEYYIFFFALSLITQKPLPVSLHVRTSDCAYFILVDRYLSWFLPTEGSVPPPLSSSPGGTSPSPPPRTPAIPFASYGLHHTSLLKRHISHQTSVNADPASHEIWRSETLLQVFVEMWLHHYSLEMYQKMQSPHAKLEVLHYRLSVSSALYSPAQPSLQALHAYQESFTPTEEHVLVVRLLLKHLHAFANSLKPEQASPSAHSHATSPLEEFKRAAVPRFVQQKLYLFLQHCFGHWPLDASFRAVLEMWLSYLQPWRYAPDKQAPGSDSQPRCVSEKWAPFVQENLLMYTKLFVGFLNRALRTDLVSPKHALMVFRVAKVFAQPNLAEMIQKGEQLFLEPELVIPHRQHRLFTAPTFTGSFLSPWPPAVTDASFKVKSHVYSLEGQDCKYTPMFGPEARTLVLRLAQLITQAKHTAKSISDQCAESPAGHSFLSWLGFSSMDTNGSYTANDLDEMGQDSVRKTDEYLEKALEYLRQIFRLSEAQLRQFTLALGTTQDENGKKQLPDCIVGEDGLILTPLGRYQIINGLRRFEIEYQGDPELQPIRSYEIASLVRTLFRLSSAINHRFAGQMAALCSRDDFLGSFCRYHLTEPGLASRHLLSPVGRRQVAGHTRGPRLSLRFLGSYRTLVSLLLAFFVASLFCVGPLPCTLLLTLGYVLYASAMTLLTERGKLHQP
Method in brief: as §1

Measured: binding result

Sequence of INTS1 (Q8N201 whole entry, the tested form may be a part): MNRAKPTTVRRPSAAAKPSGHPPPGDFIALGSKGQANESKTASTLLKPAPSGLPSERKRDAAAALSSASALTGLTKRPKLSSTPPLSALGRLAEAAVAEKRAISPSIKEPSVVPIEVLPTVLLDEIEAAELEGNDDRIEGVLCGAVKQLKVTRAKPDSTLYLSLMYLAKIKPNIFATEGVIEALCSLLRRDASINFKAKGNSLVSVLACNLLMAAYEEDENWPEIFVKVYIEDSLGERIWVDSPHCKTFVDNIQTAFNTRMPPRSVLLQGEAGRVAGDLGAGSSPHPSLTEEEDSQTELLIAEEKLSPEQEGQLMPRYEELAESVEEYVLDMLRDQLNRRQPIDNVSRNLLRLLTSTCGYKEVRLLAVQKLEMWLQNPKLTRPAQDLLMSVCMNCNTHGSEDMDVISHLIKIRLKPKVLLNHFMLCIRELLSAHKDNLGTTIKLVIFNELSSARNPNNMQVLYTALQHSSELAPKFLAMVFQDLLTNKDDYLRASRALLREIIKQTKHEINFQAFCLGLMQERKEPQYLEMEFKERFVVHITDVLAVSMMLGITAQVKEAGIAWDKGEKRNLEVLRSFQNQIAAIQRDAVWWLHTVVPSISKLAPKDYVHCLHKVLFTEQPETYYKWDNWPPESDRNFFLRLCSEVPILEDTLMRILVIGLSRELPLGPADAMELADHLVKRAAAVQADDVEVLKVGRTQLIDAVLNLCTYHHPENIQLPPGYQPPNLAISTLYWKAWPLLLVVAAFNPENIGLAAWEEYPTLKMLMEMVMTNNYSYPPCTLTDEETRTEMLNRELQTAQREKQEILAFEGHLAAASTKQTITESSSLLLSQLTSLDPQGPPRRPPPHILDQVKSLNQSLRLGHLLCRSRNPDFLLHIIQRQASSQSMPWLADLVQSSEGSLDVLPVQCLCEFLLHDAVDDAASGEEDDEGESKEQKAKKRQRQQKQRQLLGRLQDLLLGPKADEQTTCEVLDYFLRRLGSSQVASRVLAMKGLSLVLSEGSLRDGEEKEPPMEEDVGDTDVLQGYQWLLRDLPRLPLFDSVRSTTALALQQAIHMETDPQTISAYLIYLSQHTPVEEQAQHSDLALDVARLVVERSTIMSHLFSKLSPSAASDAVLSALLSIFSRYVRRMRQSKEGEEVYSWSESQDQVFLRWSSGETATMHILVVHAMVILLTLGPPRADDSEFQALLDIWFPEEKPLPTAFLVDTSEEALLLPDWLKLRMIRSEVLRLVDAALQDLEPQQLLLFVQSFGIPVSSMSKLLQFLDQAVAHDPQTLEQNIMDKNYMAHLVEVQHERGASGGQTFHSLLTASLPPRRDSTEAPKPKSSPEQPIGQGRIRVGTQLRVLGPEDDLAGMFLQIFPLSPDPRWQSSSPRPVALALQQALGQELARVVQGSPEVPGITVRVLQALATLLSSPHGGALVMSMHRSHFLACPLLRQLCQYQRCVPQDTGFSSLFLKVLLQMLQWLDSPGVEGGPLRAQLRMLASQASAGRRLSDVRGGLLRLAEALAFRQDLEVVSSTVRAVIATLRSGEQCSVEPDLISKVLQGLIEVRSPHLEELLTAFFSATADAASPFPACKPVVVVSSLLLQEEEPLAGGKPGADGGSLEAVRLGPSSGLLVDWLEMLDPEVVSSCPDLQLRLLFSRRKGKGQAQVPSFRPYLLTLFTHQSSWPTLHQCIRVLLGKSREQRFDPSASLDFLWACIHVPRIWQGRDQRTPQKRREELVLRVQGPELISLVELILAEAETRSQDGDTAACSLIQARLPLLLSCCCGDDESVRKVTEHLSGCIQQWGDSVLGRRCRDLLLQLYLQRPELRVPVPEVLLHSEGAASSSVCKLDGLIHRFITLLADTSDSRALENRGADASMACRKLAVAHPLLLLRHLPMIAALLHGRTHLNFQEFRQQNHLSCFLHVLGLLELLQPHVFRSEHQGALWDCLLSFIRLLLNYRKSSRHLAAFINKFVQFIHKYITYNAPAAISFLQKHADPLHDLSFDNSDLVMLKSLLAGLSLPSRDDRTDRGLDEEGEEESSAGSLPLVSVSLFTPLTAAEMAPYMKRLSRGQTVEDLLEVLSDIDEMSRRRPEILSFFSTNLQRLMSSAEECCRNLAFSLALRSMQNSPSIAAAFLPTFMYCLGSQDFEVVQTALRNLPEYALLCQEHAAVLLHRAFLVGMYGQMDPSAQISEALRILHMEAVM

B1: LZTR1 R810W-FLAG (other, human, UniProt Q8N653 1-840, looked up)
chain: MAGPGSTGGQIGAAALAGGARSKVAPSVDFDHSCSDSVEYLTLNFGPFETVHRWRRLPPCDEFVGARRSKHTVVAYKDAIYVFGGDNGKTMLNDLLRFDVKDCSWCRAFTTGTPPAPRYHHSAVVYGSSMFVFGGYTGDIYSNSNLKNKNDLFEYKFATGQWTEWKIEGRLPVARSAHGATVYSDKLWIFAGYDGNARLNDMWTIGLQDRELTCWEEVAQSGEIPPSCCNFPVAVCRDKMFVFSGQSGAKITNNLFQFEFKDKTWTRIPTEHLLRGSPPPPQRRYGHTMVAFDRHLYVFGGAADNTLPNELHCYDVDFQTWEVVQPSSDSEVGGAEVPERACASEEVPTLTYEERVGFKKSRDVFGLDFGTTSAKQPTQPASELPSGRLFHAAAVISDAMYIFGGTVDNNIRSGEMYRFQFSCYPKCTLHEDYGRLWESRQFCDVEFVLGEKEECVQGHVAIVTARSRWLRRKITQARERLAQKLEQEAAPVPREAPGVAAGGARPPLLHVAIREAEARPFEVLMQFLYTDKIKYPRKGHVEDVLLIMDVYKLALSFQLCRLEQLCRQYIEASVDLQNVLVVCESAARLQLSQLKEHCLNFVVKESHFNQVIMMKEFERLSSPLIVEIVRRKQQPPPRTPLDQPVDIGTSLIQDMKAYLEGAGAEFCDITLLLDGHPRPAHKAILAARSSYFEAMFRSFMPEDGQVNISIGEMVPSRQAFESMLRYIYYGEVNMPPEDSLYLFAAPYYYGFYNNRLQAYCKQNLEMNVTVQNVLQILEAADKTQALDMKRHCLHIIVHQFTKVSKLPTLWSLSQQLLLDIIDSLASHISDKQCAELGADI
notes: Stably expressed in U87 cells by lentivirus; also called LZTR1-FLAG-R810W; LZTR1 RW; not shown: FLAG tag
binds: all assays above
